Results reported in US7744896 (ISTITUTO SUPERIORE DI SANITA, dated 2010).

Legend:
[1] = molecular target: T1, α5β1 integrin (fibronectin receptor) on cytokine-activated human umbilical vein endothelial (HUVE) cells (human, UniProt P08648 42-1049; P05556 21-798); assay: conclusion of the uptake inhibition experiments on IC-activated HUVE cells
T1 construct: whole, on cells; also called FN receptor

[2] = molecular target: T2, αvβ3 integrin (vitronectin receptor) on cytokine-activated human umbilical vein endothelial (HUVE) cells (human, UniProt P06756 31-1048; P05106 27-788); assay: as above
T2 construct: whole, on cells; also called VN receptor
T2 sequence (P06756 31-1048, chain 1 of 2): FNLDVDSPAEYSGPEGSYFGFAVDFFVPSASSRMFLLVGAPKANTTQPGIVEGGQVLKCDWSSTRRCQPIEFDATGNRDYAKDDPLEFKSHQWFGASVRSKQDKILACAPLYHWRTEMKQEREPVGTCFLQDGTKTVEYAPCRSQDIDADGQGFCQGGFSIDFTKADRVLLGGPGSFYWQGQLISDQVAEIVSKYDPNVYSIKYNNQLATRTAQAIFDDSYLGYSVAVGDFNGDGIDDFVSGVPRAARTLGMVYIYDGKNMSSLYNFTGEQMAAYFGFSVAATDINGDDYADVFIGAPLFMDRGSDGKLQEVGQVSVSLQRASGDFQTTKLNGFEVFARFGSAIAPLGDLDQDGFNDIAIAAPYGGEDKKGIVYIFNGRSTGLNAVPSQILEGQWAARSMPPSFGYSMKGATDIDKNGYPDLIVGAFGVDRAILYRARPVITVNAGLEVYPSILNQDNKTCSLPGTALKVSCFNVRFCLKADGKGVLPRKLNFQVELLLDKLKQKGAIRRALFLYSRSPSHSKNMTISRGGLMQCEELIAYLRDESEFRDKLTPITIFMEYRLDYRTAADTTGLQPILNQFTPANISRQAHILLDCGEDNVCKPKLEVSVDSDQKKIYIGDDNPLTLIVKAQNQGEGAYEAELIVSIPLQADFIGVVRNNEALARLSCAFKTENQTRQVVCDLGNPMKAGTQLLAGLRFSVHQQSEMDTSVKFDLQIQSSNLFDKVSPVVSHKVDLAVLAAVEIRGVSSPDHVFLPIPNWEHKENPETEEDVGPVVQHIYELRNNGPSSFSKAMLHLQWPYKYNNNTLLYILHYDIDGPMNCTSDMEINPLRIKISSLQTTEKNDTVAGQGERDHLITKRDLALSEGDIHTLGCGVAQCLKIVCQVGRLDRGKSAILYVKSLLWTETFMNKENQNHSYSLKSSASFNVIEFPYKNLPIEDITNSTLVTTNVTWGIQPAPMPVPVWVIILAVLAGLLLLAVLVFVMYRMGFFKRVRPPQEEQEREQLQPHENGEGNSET
T2 sequence (P05106 27-788, chain 2 of 2): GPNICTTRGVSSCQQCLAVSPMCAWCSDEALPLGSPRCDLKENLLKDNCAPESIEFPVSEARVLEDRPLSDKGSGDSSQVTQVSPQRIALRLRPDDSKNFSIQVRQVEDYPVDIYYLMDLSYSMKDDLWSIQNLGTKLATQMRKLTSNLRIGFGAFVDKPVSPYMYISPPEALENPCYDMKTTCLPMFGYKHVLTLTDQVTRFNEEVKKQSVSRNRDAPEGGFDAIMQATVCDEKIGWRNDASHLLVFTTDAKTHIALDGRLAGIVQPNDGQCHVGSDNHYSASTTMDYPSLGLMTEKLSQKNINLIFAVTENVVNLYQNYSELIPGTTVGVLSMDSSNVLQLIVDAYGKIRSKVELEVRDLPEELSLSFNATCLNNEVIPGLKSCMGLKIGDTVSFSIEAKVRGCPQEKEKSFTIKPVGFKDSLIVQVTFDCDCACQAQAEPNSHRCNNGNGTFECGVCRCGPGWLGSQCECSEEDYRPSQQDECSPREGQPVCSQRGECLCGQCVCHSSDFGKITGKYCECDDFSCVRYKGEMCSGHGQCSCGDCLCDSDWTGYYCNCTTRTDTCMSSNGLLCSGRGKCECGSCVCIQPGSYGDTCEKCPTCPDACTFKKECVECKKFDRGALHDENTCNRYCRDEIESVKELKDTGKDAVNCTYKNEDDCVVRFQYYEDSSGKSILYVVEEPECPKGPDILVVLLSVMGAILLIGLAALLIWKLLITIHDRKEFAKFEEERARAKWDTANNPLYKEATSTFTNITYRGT

T1 sequence (P08648 42-1049, chain 1 of 2): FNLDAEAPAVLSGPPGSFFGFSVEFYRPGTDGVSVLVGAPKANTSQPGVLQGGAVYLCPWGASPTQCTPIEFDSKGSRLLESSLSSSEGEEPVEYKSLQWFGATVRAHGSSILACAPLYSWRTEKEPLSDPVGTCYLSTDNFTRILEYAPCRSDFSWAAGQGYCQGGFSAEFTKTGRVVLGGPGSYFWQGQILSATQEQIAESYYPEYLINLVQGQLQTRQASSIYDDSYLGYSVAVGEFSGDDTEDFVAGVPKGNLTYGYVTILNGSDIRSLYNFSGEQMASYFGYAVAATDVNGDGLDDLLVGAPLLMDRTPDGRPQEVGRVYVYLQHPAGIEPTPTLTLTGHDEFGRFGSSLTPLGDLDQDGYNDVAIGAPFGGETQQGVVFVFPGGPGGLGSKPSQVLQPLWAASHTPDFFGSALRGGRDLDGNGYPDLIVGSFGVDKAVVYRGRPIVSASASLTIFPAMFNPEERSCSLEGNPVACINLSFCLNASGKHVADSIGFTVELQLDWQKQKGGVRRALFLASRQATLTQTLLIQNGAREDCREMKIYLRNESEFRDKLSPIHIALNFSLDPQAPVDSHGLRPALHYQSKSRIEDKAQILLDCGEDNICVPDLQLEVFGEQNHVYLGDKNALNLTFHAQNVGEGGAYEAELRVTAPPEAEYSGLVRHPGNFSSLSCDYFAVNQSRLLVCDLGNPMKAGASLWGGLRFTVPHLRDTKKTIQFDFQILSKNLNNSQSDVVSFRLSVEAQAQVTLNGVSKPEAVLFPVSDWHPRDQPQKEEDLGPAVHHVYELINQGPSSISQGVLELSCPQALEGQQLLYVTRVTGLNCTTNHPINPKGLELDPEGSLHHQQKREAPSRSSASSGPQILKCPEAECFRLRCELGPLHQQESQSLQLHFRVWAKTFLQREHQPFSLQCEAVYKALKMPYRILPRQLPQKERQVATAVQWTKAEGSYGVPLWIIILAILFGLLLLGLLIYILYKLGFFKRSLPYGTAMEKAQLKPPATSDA
T1 sequence (P05556 21-798, chain 2 of 2): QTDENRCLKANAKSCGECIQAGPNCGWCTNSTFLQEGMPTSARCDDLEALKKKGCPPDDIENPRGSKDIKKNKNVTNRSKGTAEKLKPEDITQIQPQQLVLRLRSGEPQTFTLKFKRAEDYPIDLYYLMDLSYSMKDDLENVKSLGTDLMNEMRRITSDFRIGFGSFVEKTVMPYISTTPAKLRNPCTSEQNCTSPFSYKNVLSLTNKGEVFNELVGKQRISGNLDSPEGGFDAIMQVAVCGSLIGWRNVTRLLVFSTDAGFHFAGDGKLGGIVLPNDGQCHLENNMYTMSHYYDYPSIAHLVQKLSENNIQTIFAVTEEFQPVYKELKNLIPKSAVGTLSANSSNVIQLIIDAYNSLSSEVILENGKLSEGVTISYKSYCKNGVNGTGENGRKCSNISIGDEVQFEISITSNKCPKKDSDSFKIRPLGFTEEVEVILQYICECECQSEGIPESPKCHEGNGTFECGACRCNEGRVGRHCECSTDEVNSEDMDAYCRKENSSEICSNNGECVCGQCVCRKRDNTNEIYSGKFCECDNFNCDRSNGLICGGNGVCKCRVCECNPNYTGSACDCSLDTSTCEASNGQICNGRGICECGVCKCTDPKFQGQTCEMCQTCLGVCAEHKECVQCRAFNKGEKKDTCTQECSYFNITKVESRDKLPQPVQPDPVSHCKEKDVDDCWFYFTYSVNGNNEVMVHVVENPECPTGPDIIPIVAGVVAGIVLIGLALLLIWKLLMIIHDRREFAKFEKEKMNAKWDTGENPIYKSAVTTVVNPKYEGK

B1: rhodaminated Tat protein (other)
chain: MEPVDPRLEPWKHPGSQPKTACTNCYCKKCCFHCQVCFITKALGISYGRKKRRQRRRPPQGSQTHQVSLSKQPTSQSRGDPTGPKE
modifications: rhodaminated (TRITC) at lysine residues
notes: Recombinant Tat labelled with TRITC; also called rhodaminated biologically-active Tat protein
binding result [1]: binds
binding result [2]: binds
